In the RNAGym collection of RNA variant scans (doi:10.7554/elife.80360):

B1: Twister Ribozyme (parent)
chain: AACACUGCCAAUGCCGGUCCCAAGCCCGGAUAAAAGUGGAGGGGGCGG

Variants of: B1
Assay: self-cleavage, relative activity (ratio to wild type); higher = more cleavage; co-transcriptional

Question: Which self-cleavage does the source give for AACACUGCCAAUGCCGGUCCCAAGCCCGGAUAAAAGUGGCGGGGGCGA [A40C G48A] here?
Answer: Its self-cleavage is 0.192.

Question: With AACACUGCCAAUGCCGGUCCCAAGCCCGGAUAAAAGUGGCGGGGGCGU [A40C G48U] as the variant, how does the self-cleavage read?
Answer: Its self-cleavage is 0.284.

Question: For AACACUGCCAAUGCCGGUCCCAAGCCCGGAUAAAAGUGGGGGGAGCGG [A40G G44A], which self-cleavage is on record?
Answer: Its self-cleavage is 0.157.

Question: For AACACUGCCAAUGCCGGUCCCAAGCCCGGAUAAAAGUGUAGGAGGCGG [G39U G43A], which self-cleavage is on record?
Answer: The self-cleavage was 0.138.

Question: For AACACUGCCAAUGCCGGUCCCAAGCCCGGAUAAAAGUGUAGGCGGCGG [G39U G43C], which self-cleavage is on record?
Answer: The self-cleavage was 0.132.

Question: Which self-cleavage does the source give for AACACUGCCAAUGCCGGUCCCAAGCCCGGAUAAAAGUGGCGUGGGCGG [A40C G42U] here?
Answer: Its self-cleavage is 0.139.

Question: For AACACUGCCAAUGCCGGUCCCAAGCCCGGAUAAAAGUGGCGAGGGCGG [A40C G42A], which self-cleavage is on record?
Answer: Its self-cleavage is 0.152.

Question: Which self-cleavage does the source give for AACACUGCCAAUGCCGGUCCCAAGCCCGGAUAAAAGUGGAAGCGGCGG [G41A G43C] here?
Answer: Its self-cleavage is 0.14.

Question: For AACACUGCCAAUGCCGGUCCCAAGCCCGGAUAAAAGUGGAAGUGGCGG [G41A G43U], which self-cleavage is on record?
Answer: The self-cleavage was 0.135.

Question: With AACACUGCCAAUGCCGGUCCCAAGCCCGGAUAAAAGUGGAUGGGGCAG [G41U G47A] as the variant, how does the self-cleavage read?
Answer: The self-cleavage was 0.349.

Question: For AACACUGCCAAUGCCGGUCCCAAGCCCGGAUAAAAGUGUAGGGGGCGG [G39U], which self-cleavage is on record?
Answer: Its self-cleavage is 0.232.

Question: With AACACUGCCAAUGCCGGUCCCAAGCCCGGAUAAAAGUGCAGGGGGCGG [G39C] as the variant, how does the self-cleavage read?
Answer: Its self-cleavage is 0.158.

Question: With AACACUGCCAAUGCCGGUCCCAAGCCCGGAUAAAAGUGGUGGGGGCGC [A40U G48C] as the variant, how does the self-cleavage read?
Answer: The self-cleavage was 0.209.

Question: For AACACUGCCAAUGCCGGUCCCAAGCCCGGAUAAAAGUGGUGGGGGCGU [A40U G48U], which self-cleavage is on record?
Answer: Its self-cleavage is 0.21.

Question: With AACACUGCCAAUGCCGGUCCCAAGCCCGGAUAAAAGUGGUGGGGGCGA [A40U G48A] as the variant, how does the self-cleavage read?
Answer: The self-cleavage was 0.159.

Question: For AACACUGCCAAUGCCGGUCCCAAGCCCGGAUAAAAGUGGGGGCGGCGG [A40G G43C], which self-cleavage is on record?
Answer: The self-cleavage was 0.135.

Question: With AACACUGCCAAUGCCGGUCCCAAGCCCGGAUAAAAGUGGGGGUGGCGG [A40G G43U] as the variant, how does the self-cleavage read?
Answer: Its self-cleavage is 0.136.

Question: For AACACUGCCAAUGCCGGUCCCAAGCCCGGAUAAAAGUGGAACGGGCGG [G41A G42C], which self-cleavage is on record?
Answer: Its self-cleavage is 0.094.

Question: Which self-cleavage does the source give for AACACUGCCAAUGCCGGUCCCAAGCCCGGAUAAAAGUGGAAAGGGCGG [G41A G42A] here?
Answer: Its self-cleavage is 0.129.

Question: Which self-cleavage does the source give for AACACUGCCAAUGCCGGUCCCAAGCCCGGAUAAAAGUGGAAUGGGCGG [G41A G42U] here?
Answer: Its self-cleavage is 0.156.

Question: With AACACUGCCAAUGCCGGUCCCAAGCCCGGAUAAAAGUGGCCGGGGCGG [A40C G41C] as the variant, how does the self-cleavage read?
Answer: Its self-cleavage is 0.15.

Question: With AACACUGCCAAUGCCGGUCCCAAGCCCGGAUAAAAGUGGAUGGGUCGG [G41U G45U] as the variant, how does the self-cleavage read?
Answer: Its self-cleavage is 0.25.

Question: With AACACUGCCAAUGCCGGUCCCAAGCCCGGAUAAAAGUGGACCGGGCGG [G41C G42C] as the variant, how does the self-cleavage read?
Answer: Its self-cleavage is 0.129.

Question: Which self-cleavage does the source give for AACACUGCCAAUGCCGGUCCCAAGCCCGGAUAAAAGUGGACAGGGCGG [G41C G42A] here?
Answer: Its self-cleavage is 0.125.

Question: With AACACUGCCAAUGCCGGUCCCAAGCCCGGAUAAAAGUGGACUGGGCGG [G41C G42U] as the variant, how does the self-cleavage read?
Answer: Its self-cleavage is 0.167.

Question: With AACACUGCCAAUGCCGGUCCCAAGCCCGGAUAAAAGUGGUGGGGUCGG [A40U G45U] as the variant, how does the self-cleavage read?
Answer: Its self-cleavage is 0.177.

Question: Which self-cleavage does the source give for AACACUGCCAAUGCCGGUCCCAAGCCCGGAUAAAAGUGGUGGGGCCGG [A40U G45C] here?
Answer: Its self-cleavage is 0.129.

Question: For AACACUGCCAAUGCCGGUCCCAAGCCCGGAUAAAAGUGGUGGGGACGG [A40U G45A], which self-cleavage is on record?
Answer: The self-cleavage was 0.192.

Question: Which self-cleavage does the source give for AACACUGCCAAUGCCGGUCCCAAGCCCGGAUAAAAGUGGAUGGGGUGG [G41U C46U] here?
Answer: The self-cleavage was 0.68.

Question: For AACACUGCCAAUGCCGGUCCCAAGCCCGGAUAAAAGUGGAUGGGGGGG [G41U C46G], which self-cleavage is on record?
Answer: Its self-cleavage is 0.509.

Question: With AACACUGCCAAUGCCGGUCCCAAGCCCGGAUAAAAGUGUAGGGCGCGG [G39U G44C] as the variant, how does the self-cleavage read?
Answer: The self-cleavage was 0.155.

Question: With AACACUGCCAAUGCCGGUCCCAAGCCCGGAUAAAAGUGUAGGGAGCGG [G39U G44A] as the variant, how does the self-cleavage read?
Answer: Its self-cleavage is 0.15.

Question: For AACACUGCCAAUGCCGGUCCCAAGCCCGGAUAAAAGUGGUGGGGGUGG [A40U C46U], which self-cleavage is on record?
Answer: The self-cleavage was 0.163.

Question: For AACACUGCCAAUGCCGGUCCCAAGCCCGGAUAAAAGUGGUGGGGGGGG [A40U C46G], which self-cleavage is on record?
Answer: Its self-cleavage is 0.16.

Question: Which self-cleavage does the source give for AACACUGCCAAUGCCGGUCCCAAGCCCGGAUAAAAGUGGGGGGGACGG [A40G G45A] here?
Answer: Its self-cleavage is 0.146.

Question: With AACACUGCCAAUGCCGGUCCCAAGCCCGGAUAAAAGUGGACGGUGCGG [G41C G44U] as the variant, how does the self-cleavage read?
Answer: Its self-cleavage is 0.147.

Question: Which self-cleavage does the source give for AACACUGCCAAUGCCGGUCCCAAGCCCGGAUAAAAGUGGAGACGGCGG [G42A G43C] here?
Answer: The self-cleavage was 0.113.

Question: With AACACUGCCAAUGCCGGUCCCAAGCCCGGAUAAAAGUGGUGGGUGCGG [A40U G44U] as the variant, how does the self-cleavage read?
Answer: The self-cleavage was 0.183.

Question: With AACACUGCCAAUGCCGGUCCCAAGCCCGGAUAAAAGUGUAGGGGUCGG [G39U G45U] as the variant, how does the self-cleavage read?
Answer: Its self-cleavage is 0.141.

Question: Which self-cleavage does the source give for AACACUGCCAAUGCCGGUCCCAAGCCCGGAUAAAAGUGUAGGGGACGG [G39U G45A] here?
Answer: The self-cleavage was 0.151.

Question: For AACACUGCCAAUGCCGGUCCCAAGCCCGGAUAAAAGUGGAAGGUGCGG [G41A G44U], which self-cleavage is on record?
Answer: Its self-cleavage is 0.228.

Question: For AACACUGCCAAUGCCGGUCCCAAGCCCGGAUAAAAGUGGAAGGCGCGG [G41A G44C], which self-cleavage is on record?
Answer: The self-cleavage was 0.205.

Question: With AACACUGCCAAUGCCGGUCCCAAGCCCGGAUAAAAGUGGAAGGAGCGG [G41A G44A] as the variant, how does the self-cleavage read?
Answer: Its self-cleavage is 0.483.

Question: Which self-cleavage does the source give for AACACUGCCAAUGCCGGUCCCAAGCCCGGAUAAAAGUGGCGGGGGCUG [A40C G47U] here?
Answer: The self-cleavage was 0.228.

Question: With AACACUGCCAAUGCCGGUCCCAAGCCCGGAUAAAAGUGGACGGGGAGG [G41C C46A] as the variant, how does the self-cleavage read?
Answer: The self-cleavage was 0.254.

Question: Which self-cleavage does the source give for AACACUGCCAAUGCCGGUCCCAAGCCCGGAUAAAAGUGGACGGGGGGG [G41C C46G] here?
Answer: Its self-cleavage is 0.286.

Question: For AACACUGCCAAUGCCGGUCCCAAGCCCGGAUAAAAGUGGAAGGGGGGG [G41A C46G], which self-cleavage is on record?
Answer: Its self-cleavage is 0.429.

Question: Which self-cleavage does the source give for AACACUGCCAAUGCCGGUCCCAAGCCCGGAUAAAAGUGGAAGGGGAGG [G41A C46A] here?
Answer: Its self-cleavage is 0.356.

Question: Which self-cleavage does the source give for AACACUGCCAAUGCCGGUCCCAAGCCCGGAUAAAAGUGGAAGGGGUGG [G41A C46U] here?
Answer: The self-cleavage was 0.612.

Question: For AACACUGCCAAUGCCGGUCCCAAGCCCGGAUAAAAGUGCAGAGGGCGG [G39C G42A], which self-cleavage is on record?
Answer: Its self-cleavage is 0.148.

Question: Which self-cleavage does the source give for AACACUGCCAAUGCCGGUCCCAAGCCCGGAUAAAAGUGCAGCGGGCGG [G39C G42C] here?
Answer: Its self-cleavage is 0.129.

Question: For AACACUGCCAAUGCCGGUCCCAAGCCCGGAUAAAAGUGCAGUGGGCGG [G39C G42U], which self-cleavage is on record?
Answer: Its self-cleavage is 0.144.

Question: For AACACUGCCAAUGCCGGUCCCAAGCCCGGAUAAAAGUGUAGGGGGCGC [G39U G48C], which self-cleavage is on record?
Answer: Its self-cleavage is 0.265.

Question: With AACACUGCCAAUGCCGGUCCCAAGCCCGGAUAAAAGUGUAGGGGGCGA [G39U G48A] as the variant, how does the self-cleavage read?
Answer: Its self-cleavage is 0.156.
